Data on 4 molecules can be found in patent US20190144503A1 (REGENTS OF THE UNIVERSITY OF MINNESOTA, published 2019).

The target of assay [1] is T1, recombinant His-tagged human carbonic anhydrase 9 (human, UniProt Q16790 38-414). The assay is described as follows: titration of the purified clone, Relative Binding to CA9 against concentration (x axis printed 'AAZ Concentration (nM)'); assay format not described.
The target of assay [2] is T1, recombinant His-tagged human carbonic …. The assay is described as follows: binding of the purified clone to CA9 (FIG. 14B); method not stated.
Assay [3] shares this target. Kind of assay: titration of the purified clone, Relative Binding to CA9 against concentration (x axis printed 'AAZ Concentration (nM)'); assay format not described. This is another data set of the same source.

Where two headings read alike, the source gives them in different places.

B1: Fn-AAZ clone 0.3.9 (fibronectin type III domain of SEQ ID NO: 4 conjugated to acetazolamide) (designed binder)
chain: MASSSDSPRNLEVTNATPNSLTISWDDSYCVIYYRITYGETGGNSPSQEFTVPGYTNSVTISGLKPGQDYTITVYAVTDYSKLDPSNPISINYRTEIDKPSQGS
modifications: acetazolamide (AAZ) conjugated through a maleimide-PEG linker to the single cysteine; PEG length not stated for this clone
notes: Expressed and purified clone, conjugated with maleimide-PEG-AAZ; also called second Fn-AAZ clone; second Fn-AAZ conjugate
The Kd is a measure of binding affinity in units of concentration. For the molecule B1, the equilibrium dissociation constant (Kd) in assay [1] was around 30 nM. In addition, the “fold higher affinity than the Fn not conjugated to AAZ” value in assay [2] was around 6 fold.

B2: Clone 0.3.9 fibronectin type III domain (SEQ ID NO: 4) not conjugated to AAZ (designed binder)
chain: MASSSDSPRNLEVTNATPNSLTISWDDSYCVIYYRITYGETGGNSPSQEFTVPGYTNSVTISGLKPGQDYTITVYAVTDYSKLDPSNPISINYRTEIDKPSQGS
For the molecule B2, the dissociation constant Kd in assay [1] was 170 nM.

B3: Fn-AAZ clone 0.3.10 (fibronectin type III domain of SEQ ID NO: 3 conjugated to acetazolamide) (designed binder)
chain: MASSSDSPRNLEVTNATPNSLTISWDSYLDCAYYYRITYGETGGNSPSQEFTVPGYTNSVTISGLKPGQDYTITVYAVASSNDVSNPISINYRTEIDKPSQGS
modifications: acetazolamide (AAZ) conjugated through a maleimide-PEG linker to the single cysteine; PEG length not stated for this clone
notes: Expressed and purified clone, conjugated with maleimide-PEG-AAZ; also called first Fn-AAZ clone; first Fn-AAZ conjugate
For B3, the Kd in assay [3] was found to be 60 nM.

B4: Clone 0.3.10 fibronectin type III domain (SEQ ID NO: 3) not conjugated to AAZ (designed binder)
chain: MASSSDSPRNLEVTNATPNSLTISWDSYLDCAYYYRITYGETGGNSPSQEFTVPGYTNSVTISGLKPGQDYTITVYAVASSNDVSNPISINYRTEIDKPSQGS
Turning to B4, the Kd in assay [3] was 600 nM.
